The values below come from paper PMC9580340.

pKd: −log10 of the molar value.

The assay deals with soluble dimeric human ACE2, Fc-tagged, biotinylated (ACRO Biosystems AC2-H82F9) (human) (UniProt Q9BYF1). Kind of assay: SPR.

In turn, “SARS-CoV-2 B.1.1.529 S2P spike trimer (binding studies) (domain or fragment)” had a pKd of 8.42 to 9.23.

For “SARS-CoV-2 D614G S2P spike trimer (binding studies) (domain or fragment)”, the pKd is 9.14.

With “SARS-CoV-2 WA-1 S2P spike trimer (binding studies) (domain or fragment)”, the pKd is 8.96.
